Reference: FireProtDB (doi:10.1093/protein/15.10.817)
Several values for one entry are separate records, joined by “and”; a condition that tells them apart may be missing. Identical values can stand only once.

B1: High mobility group protein B1, P63159 (parent)
chain: MGKGDPKKPRGKMSSYAFFVQTCREEHKKKHPDASVNFSEFSKKCSERWKTMSAKEKGKFEDMAKADKARYEREMKTYIPPKGETKKKFKDPNAPKRPPSAFFLFCSEYRPKIKGEHPGLSIGDVAKKLGEMWNNTAADDKQPYEKKAAKLKEKYEKDIAAYRAKGKPDAAKKGVVKAEKSKKKKEEEDDEEDEEDEEEEEEEEDEDEEEDDDDE

Variants of: B1
Conditions: Rattus norvegicus, pH 7, Thermal, CD, HEPES 10 mM, structure 1HME, whole UniProt chain shown; for ddG of mutation (higher = less stable) / unfolding free energy: 20 °C

| Variant | ddG of mutation (higher = less stable) (NiSO4 1 mM) [kcal/mol] | unfolding free energy (NiSO4 1 mM) | ddG of mutation (higher = less stable) | unfolding free energy | Tm (NiSO4 1 mM) [°C] | change of melting temperature, mutant - wild type (higher = more stable) (NiSO4 1 mM) [°C] | unfolding enthalpy (van 't Hoff) (NiSO4 1 mM) [kcal/mol] | Tm | change of melting temperature, mutant - wild type (higher = more stable) | unfolding enthalpy (van 't Hoff) |
| --- | --- | --- | --- | --- | --- | --- | --- | --- | --- | --- |
| S121H | 1.5 | 1.2 kcal/mol | 1.85 kcal/mol | 0.85 kcal/mol | 34.4 | -6.2 | 31.4 | 30.4 °C | -10.2 °C | 28.2 kcal/mol |
| G123H | -0.47 | 3.17 kcal/mol | 0.34 kcal/mol | 2.36 kcal/mol | 44.9 | 4.3 | 36.8 |  |  |  |
| D139H | -0.97 | 3.67 kcal/mol | -0.27 kcal/mol | 2.97 kcal/mol | 46.8 | 6.2 | 41 | 41.1 °C | 0.5 °C | 38.3 kcal/mol |
| I122H | 0 | 2.7 kcal/mol | 1.23 kcal/mol | 1.74 kcal/mol | 41.9 | 1.3 | 34.2 | 36.2 °C | -4.4 °C | 33.6 kcal/mol |
| N135H D139H |  | 1.74 kcal/mol and 4.04 kcal/mol and 4.32 kcal/mol |  | 1.69 kcal/mol and 2.42 kcal/mol and 1.67 kcal/mol |  |  |  | 39 °C and 36.3 °C |  | 35.8 kcal/mol and 32.3 kcal/mol |
| N135H D140H |  | 1.8 kcal/mol and 2.46 kcal/mol | 1.3 kcal/mol and 1.2 kcal/mol | 1.4 kcal/mol and 1.5 kcal/mol |  |  |  | 34.3 °C and 35.3 °C | -6.3 °C and -5.3 °C | 33.1 kcal/mol and 31.5 kcal/mol |
| D140H | -0.95 | 3.65 kcal/mol |  |  | 46.8 | 6.2 | 36.8 | 38.2 °C | -2.4 °C | 33 kcal/mol |
